Paper PMC8202330, “Phosphorylation of the LIR Domain of SCOC Modulates ATG8 Binding Affinity and Specificity” (Journal of Molecular Biology, 2021)

Experiments:
[1] = target: SCOC LIR peptide phosphorylated at S12 and S18 (BLI) (human); assay: BLI; biotinylated LIR peptide immobilized on streptavidin biosensor, ATG8 in solution; 25 mM Tris pH 7.5, 150 mM NaCl, 0.5 mM TCEP, 0.1% Tween20, 1 mg/ml BSA; 25 °C; Kd from response against concentration
GABARAP = GABARAP (UniProt O95166); assay: bio-layer interferometry, immobilised biotin peptide; settings: reference: unphosphorylated WT peptide
GABARAPL1 = GABARAPL1 (UniProt Q9H0R8); assay: as above; settings: reference: unphosphorylated WT peptide
GABARAPL2 = GABARAPL2 (UniProt P60520); assay: as above; settings: reference: unphosphorylated WT peptide
LC3B = LC3B (UniProt Q9GZQ8); assay: as above; settings: reference: unphosphorylated WT peptide
LC3C = LC3C (UniProt Q9BXW4); assay: as above; settings: reference: unphosphorylated WT peptide
LC3A = LC3A (UniProt Q9H492); assay: as above; settings: reference: unphosphorylated WT peptide
[2] = target: SCOC aa 11–25 LIR peptide (human); assay: BLI; biotinylated LIR peptide immobilized on streptavidin biosensor, ATG8 in solution; 25 mM Tris pH 7.5, 150 mM NaCl, 0.5 mM TCEP, 0.1% Tween20, 1 mg/ml BSA; 25 °C; Kd from response against concentration
[3] = target: SCOC aa 6–18 LIR peptide (human); assay: as above
[4] = target: SCOC pS12 LIR peptide (human); assay: as above
Chain of SCOC pS12 LIR peptide (human) (peptide, as listed by the source): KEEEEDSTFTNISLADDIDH

Chain of GABARAPL2 (P60520 whole entry, looked up): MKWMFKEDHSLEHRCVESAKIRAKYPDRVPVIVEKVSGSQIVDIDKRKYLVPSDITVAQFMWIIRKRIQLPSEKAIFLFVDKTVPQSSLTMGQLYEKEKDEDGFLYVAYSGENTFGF
Chain of GABARAP (O95166 whole entry, looked up): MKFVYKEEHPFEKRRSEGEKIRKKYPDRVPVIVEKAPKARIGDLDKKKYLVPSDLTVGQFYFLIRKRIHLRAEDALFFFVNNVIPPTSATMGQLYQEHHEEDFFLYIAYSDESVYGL
Chain of GABARAPL1 (for BLI) (Q9H0R8 whole entry): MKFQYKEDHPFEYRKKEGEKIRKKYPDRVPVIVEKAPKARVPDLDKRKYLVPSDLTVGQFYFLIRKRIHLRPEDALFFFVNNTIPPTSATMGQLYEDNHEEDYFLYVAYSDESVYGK
Chain of GABARAPL1 (Q9H0R8 whole entry, looked up): as the sequence (Q9H0R8 whole entry) above
Chain of LC3C (Q9BXW4 whole entry, looked up): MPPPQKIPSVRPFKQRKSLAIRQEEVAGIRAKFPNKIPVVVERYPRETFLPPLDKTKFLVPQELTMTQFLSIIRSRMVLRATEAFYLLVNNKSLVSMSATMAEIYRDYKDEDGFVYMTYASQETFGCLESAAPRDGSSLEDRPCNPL
Chain of LC3C (for BLI) (Q9BXW4 1-126): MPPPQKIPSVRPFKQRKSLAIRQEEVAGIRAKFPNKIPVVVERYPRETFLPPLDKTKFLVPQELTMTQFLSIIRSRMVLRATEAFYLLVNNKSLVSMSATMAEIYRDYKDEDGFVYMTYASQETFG

LC3C (for BLI) (from UniProt Q9BXW4 1-126) (natural protein)
21 fold: fold increase in affinity over SCOC WT LIR peptide [1]

SCOC (isoform 3) LIR domain, 6-25 (from UniProt Q9UIL1-2) pT13 peptide
same: binding against the reference (GABARAP; sites T13) | binding against the reference (GABARAPL1; sites T13) | binding against the reference (GABARAPL2; sites T13) | binding against the reference (LC3B; sites T13) | binding against the reference (LC3C; sites T13)

SCOC (isoform 3) LIR domain, 6-25 (from UniProt Q9UIL1-2) pS12 peptide
stronger: fold change (GABARAP; sites S12) | fold change (GABARAPL1; sites S12) | fold change (GABARAPL2; sites S12) | fold change (LC3A; sites S12) | fold change (LC3B; sites S12) | fold change (LC3C; sites S12)

SCOC (isoform 3) LIR domain, 6-25 (from UniProt Q9UIL1-2) pS12/pT15 peptide
stronger: fold change (GABARAP; sites S12,T15) | fold change (GABARAPL1; sites S12,T15) | fold change (GABARAPL2; sites S12,T15) | fold change (LC3A; sites S12,T15) | fold change (LC3B; sites S12,T15) | fold change (LC3C; sites S12,T15)

GABARAPL1 (for BLI) (from UniProt Q9H0R8 1-117) (natural protein)
2 fold: fold increase in affinity over SCOC WT LIR peptide [4]
104 fold: fold decrease in affinity against SCOC WT LIR peptide [2]
4 fold: fold decrease in affinity against SCOC WT LIR peptide [3]

SCOC (isoform 3) LIR domain, 6-25 (from UniProt Q9UIL1-2) pT15 peptide
same: fold change (GABARAP; sites T15) | fold change (GABARAPL1; sites T15) | fold change (GABARAPL2; sites T15)
stronger: fold change (LC3A; sites T15) | fold change (LC3B; sites T15) | fold change (LC3C; sites T15)

LC3A (for BLI) (from UniProt Q9H492 1-121) (natural protein)
17 fold: fold increase in affinity over SCOC WT LIR peptide [1]

SCOC (isoform 3) LIR domain, 6-25 (from UniProt Q9UIL1-2) pS18 peptide
same: fold change (GABARAP; sites S18) | fold change (GABARAPL1; sites S18) | fold change (GABARAPL2; sites S18)
stronger: fold change (LC3A; sites S18) | fold change (LC3B; sites S18) | fold change (LC3C; sites S18)

SCOC (isoform 3) LIR domain, 6-25 (from UniProt Q9UIL1-2) pS12/pS18 peptide
stronger: fold change (GABARAP; sites S12,S18) | fold change (GABARAPL1; sites S12,S18) | fold change (GABARAPL2; sites S12,S18) | fold change (LC3A; sites S12,S18) | fold change (LC3B; sites S12,S18) | fold change (LC3C; sites S12,S18)
